Reference: US20110059889A1 (SYNTONIX PHARMACEUTICALS, published 2011)
Where two headings read alike, the source gives them in different places. Numbered stars: 1 amine (or outer) side, 2 acyl side, 3 side chain; on linkers, the order of the positions; unused ones are H or OH. Bridge positions count the residues as written; N and C are the ends. Square brackets hold non-standard residues; d marks the D form. Ends that are not written are not given here. Tyr(2-NO2) = 2-nitro-Tyr, O=C([C@H](Cc1ccc(O[*:3])cc1[N+](=O)[O-])N[*:1])[*:2]; Phe(4-NO2) = N[C@@H](Cc1ccc([N+](=O)[O-])cc1)C(=O)O; Phe(F5) = N[C@@H](Cc1c(F)c(F)c(F)c(F)c1F)C(=O)O; Phe(4-NH2) = Nc1ccc(C[C@H](N)C(=O)O)cc1; Phe(4-F) = N[C@@H](Cc1ccc(F)cc1)C(=O)O; Phe(2-Me) = Cc1ccccc1C[C@H](N)C(=O)O; Pen = CC(C)(S)[C@H](N)C(=O)O; Sar = CNCC(=O)O

Columns and labels:
[1] = biological target: T1, soluble human FcRn (shFcRn) (human, UniProt P55899 24-297; P61769 21-119); assay: SPR pH 6; Peptide No. 87: Pen, 2-nitro-Tyr for Tyr (QRF-Pen-TGHFGGL-(2-nitro-Tyr)-PCNGP)
T1 construct: Biotinylated for the ELISA, amine-coupled to a CM5 chip for SPR; also called biotinylated shFcRn
T1 sequence (P55899 24-297 limits assumed, chain 1 of 2): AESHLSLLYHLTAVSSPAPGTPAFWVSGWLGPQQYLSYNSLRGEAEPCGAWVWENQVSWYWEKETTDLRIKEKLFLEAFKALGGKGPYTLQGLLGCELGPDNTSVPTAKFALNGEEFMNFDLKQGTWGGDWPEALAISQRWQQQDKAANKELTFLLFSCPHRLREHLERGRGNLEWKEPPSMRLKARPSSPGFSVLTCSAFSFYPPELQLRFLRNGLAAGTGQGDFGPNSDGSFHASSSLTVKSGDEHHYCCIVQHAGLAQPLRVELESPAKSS
T1 sequence (P61769 21-119 limits assumed, chain 2 of 2): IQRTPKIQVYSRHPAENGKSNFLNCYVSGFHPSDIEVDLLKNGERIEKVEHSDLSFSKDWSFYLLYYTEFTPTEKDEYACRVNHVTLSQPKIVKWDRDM
Procedure: (§1) The following steps were performed to cross-link soluble human or cynomolgus FcRn to the dextran surface of a CM5 sensor chip (Biacore AB, Uppsala, Sweden) by an amine coupling reaction involving 1-ethyl-(3-dimethylaminopropyl)-carbodiimide hydrochloride (EDC) (Biacore AB, Uppsala, Sweden) and N-hydroxysuccinimide (NHS) (Biacore AB, Uppsala, Sweden) as recommended by Biacore (BIAapplications Handbook, version AB, section 4.2, Biacore AB, Uppsala, Sweden). […] Residual sites on the FcRn flow cell were blocked with 1 M ethanolamine hydrochloride pH 8.5 (Biacore AB, Uppsala, Sweden). A control flow cell was blocked with ethanolamine for reference subtraction. For analysis of the monomeric peptides, FcRn was coated to a final density of 4000-5000 response units (RU). For analysis of the peptide dimers, FcRn was coated to a density of 2000-2500 RU. All SPR measurements were performed using a BIACORE 3000 Instrument (Biacore AB Uppsala, Sweden). For measurements done at either pH 6 or pH 7.4, experiments were performed in 50 mM phosphate, 100 mM sodium chloride, 0.01% surfactant P20 (Biacore AB, Uppsala, Sweden).
(§2) Ten, 2-fold dilutions of the peptide were injected over the FcRn-CM5 chip at a rate of 20 μl/min for 2 min. The peptide was dissociated from the chip for 2.5 minutes with buffer. […] Sensorgrams were generated and analyzed using BiaEval software version 3.1 (Biacore AB, Uppsala, Sweden). […]

[2] = biological target: T1, soluble human FcRn (shFcRn); assay: IgG competition ELISA
Procedure: (§3) The wells were coated with 100 μl/well of 1 μg/ml biotinylated-shFcRn in Buffer A. The plate was sealed and incubated at 37° C. for 2 hours. Afterwards, the plate was washed with 200 μl/well of Buffer B (Buffer B: 100 mM MES pH 6, 150 mM NaCl, 0.5% BSA IgG-free (Jackson ImmunoResearch, West Grove, Pa.), 0.05% Tween-20). […] To allow for mixing, the plate was rocked for 2 minutes, sealed and incubated at 37° C. for 2 hours. […] The plate was covered, incubated for 30 minutes at room temperature and washed 4 times with 200 μl/well of ice-cold buffer B. SureBlue TMB substrate solution (100 μl/well, KPL, Gaithersburg, Md.) was added and the plate was allowed to incubate at room temperature until color developed, which took 5 to 10 minutes. Once color developed, 100 μl/well of TMB stop solution (KPL, Gaithersburg, Md.) was added and the absorbance was measured at 450 nm. The data was plotted as absorbance vs. peptide concentration to derive the inhibitory concentration 50% (IC₅₀) values.

[3] = biological target: T1, soluble human FcRn (shFcRn); assay: SPR pH 6; Peptide No. 88: Pen, 2-MePhe for Phe (QRF-Pen-TGH-(2-MePhe)-…)
Procedure: as §1, §2

[4] = biological target: T1, soluble human FcRn (shFcRn); assay: SPR pH 6; 4-amino-Phe in place of Tyr; Pen backbone
Procedure: as §1, §2

[5] = biological target: T1, soluble human FcRn (shFcRn); assay: IgG competition ELISA; remark: listed apart in the source
[6] = biological target: T1, soluble human FcRn (shFcRn); assay: SPR pH 6; Peptide No. 189: Pen, lower-case a, Sar (QRF-Pen-TGHF-a-Sar-LYPCNGP)
Procedure: as §1, §2

[7] = biological target: T1, soluble human FcRn (shFcRn); assay: SPR pH 7.4
Procedure: as §1, §2

[8] = biological target: T1, soluble human FcRn (shFcRn); assay: IgG competition ELISA; remark: listed apart in the source
Procedure: as §3

[9] = biological target: T1, soluble human FcRn (shFcRn); assay: SPR pH 6
Procedure: as §1
(§4) Ten, 2-fold dilutions of the peptide were injected over the FcRn-CM5 chip at a rate of 20 μl/min for 2 min. The peptide was dissociated from the chip for 2.5 minutes with buffer. Any remaining peptide was removed from the chip with a 30 second injection of HBS-P buffer (Biacore AB, Uppsala, Sweden) at a rate of 30 μl/min. Sensorgrams were generated and analyzed using BiaEval software version 3.1 (Biacore AB, Uppsala, Sweden). The equilibrium RU observed for each injection was plotted against concentration. The equilibrium KD values were derived by analysis of the plots using the steady state affinity model included in the BiaEval software.

[10] = biological target: T1, soluble human FcRn (shFcRn); assay: SPR pH 7.4; remark: listed apart in the source
Procedure: as §1, §2

[11] = biological target: T1, soluble human FcRn (shFcRn); assay: SPR pH 6; 4-nitro-Phe in place of Tyr; Pen backbone
Procedure: as §1, §2

[12] = biological target: T1, soluble human FcRn (shFcRn); assay: SPR pH 6; Peptide No. 75: Pen, lower-case a-G (QRF-Pen-TGHF-a-G-LYPCNGP)
Procedure: as §1, §2

[13] = biological target: T1, soluble human FcRn (shFcRn); assay: SPR pH 6; pentafluoroPhe in place of Tyr; Pen backbone
Procedure: as §1, §2

[14] = biological target: T1, soluble human FcRn (shFcRn); assay: SPR pH 7.4; remark: listed apart in the source
Procedure: as §1, §2

[15] = biological target: T1, soluble human FcRn (shFcRn); assay: SPR pH 6; remark: listed apart in the source
Procedure: as §1, §4

[16] = biological target: T1, soluble human FcRn (shFcRn); assay: SPR pH 6; Peptide No. 94: Pen, PheNHAc for Phe (QRF-Pen-TGH-(PheNHAc)-…)
Procedure: as §1, §2

B1: Peptide No. 87 (peptide)
peptide: QRF[Pen]TGHFGGL[Tyr(2-NO2)]PCNGP-NH2
modifications: disulfide 4-14; N-terminus assumed
SMILES: CC(C)C[C@@H]1NC(=O)CNC(=O)CNC(=O)[C@H](Cc2ccccc2)NC(=O)[C@H](Cc2c[nH]cn2)NC(=O)CNC(=O)[C@H]([C@@H](C)O)NC(=O)[C@@H](NC(=O)[C@H](Cc2ccccc2)NC(=O)[C@H](CCCNC(=N)N)NC(=O)[C@@H](N)CCC(N)=O)C(C)(C)SSC[C@@H](C(=O)N[C@@H](CC(N)=O)C(=O)NCC(=O)N2CCC[C@H]2C(N)=O)NC(=O)[C@@H]2CCCN2C(=O)[C@H](Cc2ccc(O)cc2[N+](=O)[O-])NC1=O
Kd [1]: 290000 nM

B2: Peptide No. 88 (peptide)
peptide: QRF[Pen]TGH[Phe(2-Me)]GGLYPCNGP-NH2
modifications: disulfide 4-14; N-terminus assumed
SMILES: Cc1ccccc1C[C@@H]1NC(=O)[C@H](Cc2c[nH]cn2)NC(=O)CNC(=O)[C@H]([C@@H](C)O)NC(=O)[C@@H](NC(=O)[C@H](Cc2ccccc2)NC(=O)[C@H](CCCNC(=N)N)NC(=O)[C@@H](N)CCC(N)=O)C(C)(C)SSC[C@@H](C(=O)N[C@@H](CC(N)=O)C(=O)NCC(=O)N2CCC[C@H]2C(N)=O)NC(=O)[C@@H]2CCCN2C(=O)[C@H](Cc2ccc(O)cc2)NC(=O)[C@H](CC(C)C)NC(=O)CNC(=O)CNC1=O
IC50 [2]: 1000 nM
Kd [3]: 200 nM

B3: Peptide No. 63 (peptide)
peptide: QRF[Pen]TGHFGGL[Phe(4-NH2)]PCNGP-NH2
modifications: disulfide 4-14; N-terminus assumed
SMILES: CC(C)C[C@@H]1NC(=O)CNC(=O)CNC(=O)[C@H](Cc2ccccc2)NC(=O)[C@H](Cc2c[nH]cn2)NC(=O)CNC(=O)[C@H]([C@@H](C)O)NC(=O)[C@@H](NC(=O)[C@H](Cc2ccccc2)NC(=O)[C@H](CCCNC(=N)N)NC(=O)[C@@H](N)CCC(N)=O)C(C)(C)SSC[C@@H](C(=O)N[C@@H](CC(N)=O)C(=O)NCC(=O)N2CCC[C@H]2C(N)=O)NC(=O)[C@@H]2CCCN2C(=O)[C@H](Cc2ccc(N)cc2)NC1=O
Kd [4]: 34000 nM
IC50 [5]: 110000 nM

B4: Peptide No. 189 (peptide)
peptide: QRF[Pen]TGHF[dA][Sar]LYPCNGP-NH2
modifications: disulfide 4-14; N-terminus assumed
SMILES: CC(C)C[C@@H]1NC(=O)CN(C)C(=O)[C@@H](C)NC(=O)[C@H](Cc2ccccc2)NC(=O)[C@H](Cc2c[nH]cn2)NC(=O)CNC(=O)[C@H]([C@@H](C)O)NC(=O)[C@@H](NC(=O)[C@H](Cc2ccccc2)NC(=O)[C@H](CCCNC(=N)N)NC(=O)[C@@H](N)CCC(N)=O)C(C)(C)SSC[C@@H](C(=O)N[C@@H](CC(N)=O)C(=O)NCC(=O)N2CCC[C@H]2C(N)=O)NC(=O)[C@@H]2CCCN2C(=O)[C@H](Cc2ccc(O)cc2)NC1=O
Kd [6]: 190 nM

B5: Peptide No. 140 (peptide)
peptide: QRF[Pen]TGHFGGL[Phe(4-F)]PCNGP-NH2
modifications: disulfide 4-14; N-terminus assumed
SMILES: CC(C)C[C@@H]1NC(=O)CNC(=O)CNC(=O)[C@H](Cc2ccccc2)NC(=O)[C@H](Cc2c[nH]cn2)NC(=O)CNC(=O)[C@H]([C@@H](C)O)NC(=O)[C@@H](NC(=O)[C@H](Cc2ccccc2)NC(=O)[C@H](CCCNC(=N)N)NC(=O)[C@@H](N)CCC(N)=O)C(C)(C)SSC[C@@H](C(=O)N[C@@H](CC(N)=O)C(=O)NCC(=O)N2CCC[C@H]2C(N)=O)NC(=O)[C@@H]2CCCN2C(=O)[C@H](Cc2ccc(F)cc2)NC1=O
Kd [7]: 24000 nM
IC50 [5]: 26000 nM

B6: Peptide No. 296 (peptide)
peptide: QRF[Pen]HGHFGGLYPCNGP-NH2
modifications: disulfide 4-14; N-terminus assumed
SMILES: CC(C)C[C@@H]1NC(=O)CNC(=O)CNC(=O)[C@H](Cc2ccccc2)NC(=O)[C@H](Cc2c[nH]cn2)NC(=O)CNC(=O)[C@H](Cc2c[nH]cn2)NC(=O)[C@@H](NC(=O)[C@H](Cc2ccccc2)NC(=O)[C@H](CCCNC(=N)N)NC(=O)[C@@H](N)CCC(N)=O)C(C)(C)SSC[C@@H](C(=O)N[C@@H](CC(N)=O)C(=O)NCC(=O)N2CCC[C@H]2C(N)=O)NC(=O)[C@@H]2CCCN2C(=O)[C@H](Cc2ccc(O)cc2)NC1=O
IC50 [8]: 3000 nM
Kd [9]: 150 nM
Kd [10]: 960 nM

B7: Peptide No. 68 (peptide)
peptide: QRF[Pen]TGHFGGL[Phe(4-NO2)]PCNGP-NH2
modifications: disulfide 4-14; N-terminus assumed
SMILES: CC(C)C[C@@H]1NC(=O)CNC(=O)CNC(=O)[C@H](Cc2ccccc2)NC(=O)[C@H](Cc2c[nH]cn2)NC(=O)CNC(=O)[C@H]([C@@H](C)O)NC(=O)[C@@H](NC(=O)[C@H](Cc2ccccc2)NC(=O)[C@H](CCCNC(=N)N)NC(=O)[C@@H](N)CCC(N)=O)C(C)(C)SSC[C@@H](C(=O)N[C@@H](CC(N)=O)C(=O)NCC(=O)N2CCC[C@H]2C(N)=O)NC(=O)[C@@H]2CCCN2C(=O)[C@H](Cc2ccc([N+](=O)[O-])cc2)NC1=O
Kd [11]: 180000 nM

B8: Peptide No. 75 (peptide)
peptide: QRF[Pen]TGHF[dA]GLYPCNGP-NH2
modifications: disulfide 4-14; N-terminus assumed
SMILES: CC(C)C[C@@H]1NC(=O)CNC(=O)[C@@H](C)NC(=O)[C@H](Cc2ccccc2)NC(=O)[C@H](Cc2c[nH]cn2)NC(=O)CNC(=O)[C@H]([C@@H](C)O)NC(=O)[C@@H](NC(=O)[C@H](Cc2ccccc2)NC(=O)[C@H](CCCNC(=N)N)NC(=O)[C@@H](N)CCC(N)=O)C(C)(C)SSC[C@@H](C(=O)N[C@@H](CC(N)=O)C(=O)NCC(=O)N2CCC[C@H]2C(N)=O)NC(=O)[C@@H]2CCCN2C(=O)[C@H](Cc2ccc(O)cc2)NC1=O
Kd [12]: 490 nM

B9: Peptide No. 65 (peptide)
peptide: QRF[Pen]TGHFGGL[Phe(F5)]PCNGP-NH2
modifications: disulfide 4-14; N-terminus assumed
SMILES: CC(C)C[C@@H]1NC(=O)CNC(=O)CNC(=O)[C@H](Cc2ccccc2)NC(=O)[C@H](Cc2c[nH]cn2)NC(=O)CNC(=O)[C@H]([C@@H](C)O)NC(=O)[C@@H](NC(=O)[C@H](Cc2ccccc2)NC(=O)[C@H](CCCNC(=N)N)NC(=O)[C@@H](N)CCC(N)=O)C(C)(C)SSC[C@@H](C(=O)N[C@@H](CC(N)=O)C(=O)NCC(=O)N2CCC[C@H]2C(N)=O)NC(=O)[C@@H]2CCCN2C(=O)[C@H](Cc2c(F)c(F)c(F)c(F)c2F)NC1=O
Kd [13]: 72000 nM

B10: Peptide No. 84 (peptide)
peptide: QRF[Pen]TGHFGGHYPCNGP-NH2
modifications: disulfide 4-14; N-terminus assumed
SMILES: C[C@@H](O)[C@@H]1NC(=O)[C@@H](NC(=O)[C@H](Cc2ccccc2)NC(=O)[C@H](CCCNC(=N)N)NC(=O)[C@@H](N)CCC(N)=O)C(C)(C)SSC[C@@H](C(=O)N[C@@H](CC(N)=O)C(=O)NCC(=O)N2CCC[C@H]2C(N)=O)NC(=O)[C@@H]2CCCN2C(=O)[C@H](Cc2ccc(O)cc2)NC(=O)[C@H](Cc2c[nH]cn2)NC(=O)CNC(=O)CNC(=O)[C@H](Cc2ccccc2)NC(=O)[C@H](Cc2c[nH]cn2)NC(=O)CNC1=O
Kd [14]: 2500 nM
Kd [15]: 380 nM

B11: Peptide No. 94 (peptide)
peptide: QRF[Pen]TGH[Phe(4-NHAc)]GGLYPCNGP-NH2
modifications: disulfide 4-14
Kd [16]: 270000 nM
